Measurements published in PMC2783927.

Legend:
[1] = molecular target: IL-17RC extracellular domain, C-terminally biotinylated (UniProt Q8NAC3); test: SPR
[2] = molecular target: IL-17RA extracellular domain, C-terminally biotinylated (human) (UniProt Q96F46); test: SPR
[3] = molecular target: IL-17RB-IL-25 complex, pre-assembled on the SPR chip (UniProt Q9NRM6); test: SPR
[4] = molecular target: IL-17RC-IL-17F complex, pre-assembled on the SPR chip (UniProt Q8NAC3); test: SPR
[5] = molecular target: IL-17RC-IL-17A complex, pre-assembled on the SPR chip (UniProt Q8NAC3); test: SPR
[6] = molecular target: IL-17F homodimer (for binding experiments) (human) (UniProt Q96PD4); test: SEC
[7] = molecular target: T1, IL-17F homodimer (crystallised form: tag cleaved, lysine-methylated) (human), Q96PD4; test: crystal structure; conditions: remark: other sources report otherwise
T1 chain: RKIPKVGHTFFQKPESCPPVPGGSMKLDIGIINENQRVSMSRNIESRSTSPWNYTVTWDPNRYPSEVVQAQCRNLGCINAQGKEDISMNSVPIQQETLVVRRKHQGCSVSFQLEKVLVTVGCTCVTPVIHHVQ

[8] = molecular target: T1, IL-17F homodimer (crystallised form: …); test: SDS-PAGE; conditions: remark: other sources report otherwise

Chain of UniProt Q9NRM6 (Q9NRM6 18-292, chain 1 of 2): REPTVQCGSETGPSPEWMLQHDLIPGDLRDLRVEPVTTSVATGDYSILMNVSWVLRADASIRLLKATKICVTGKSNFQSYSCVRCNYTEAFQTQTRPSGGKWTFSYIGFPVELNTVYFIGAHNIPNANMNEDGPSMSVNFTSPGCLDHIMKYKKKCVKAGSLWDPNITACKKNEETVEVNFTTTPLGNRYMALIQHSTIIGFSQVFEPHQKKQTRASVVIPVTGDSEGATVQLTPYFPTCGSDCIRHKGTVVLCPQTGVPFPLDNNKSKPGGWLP
Chain of UniProt Q9NRM6 (Q9H293 33-177, chain 2 of 2, further chain): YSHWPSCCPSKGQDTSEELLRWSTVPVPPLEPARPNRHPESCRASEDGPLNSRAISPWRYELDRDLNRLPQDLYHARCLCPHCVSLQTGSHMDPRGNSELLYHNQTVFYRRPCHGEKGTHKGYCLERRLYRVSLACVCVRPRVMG

IL-17F homodimer (for binding experiments) (from UniProt Q96PD4 31-163) (ligand)
Kd [1]: 4.4 nM | Kd [2]: 292 nM

IL-17A homodimer (from UniProt Q16552 24-155) (ligand)
Kd [1]: 1.2 nM | Kd [2]: 2.8 nM

IL-17RA extracellular domain, soluble (without BirA ligase tag) (receptor)
Kd [3]: 14.1 µM | Kd [4]: 23.8 µM | Kd [5]: 0.162 µM | stoichiometry N (receptor per IL-17 dimer) [6]: 1 | stoichiometry N (receptors per IL-17 dimer) [6]: 2

B1: IL-17F homodimer (crystallised form: tag cleaved, lysine-methylated), Q96PD4 31-163 (ligand)
chain: RKIPKVGHTFFQKPESCPPVPGGSMKLDIGIINENQRVSMSRNIESRSTSPWNYTVTWDPNRYPSEVVQAQCRNLGCINAQGKEDISMNSVPIQQETLVVRRKHQGCSVSFQLEKVLVTVGCTCVTPVIHHVQ
modifications: here or on the partner: reductive lysine methylation of the complex; reductive lysine methylation of the complex
stoichiometry N [7]: 2 | stoichiometry N [8]: 2

B2: IL-17RC extracellular domain, soluble (without BirA ligase tag) (receptor)
chain: LERLVGPQDATHCSPVSLEPWGDEERLRVQFLAQQSLSLAPVTAATARTALSGLSGADGRREERGRGKSWVCLSLGGSGNTEPQKKGLSCRLWDSDILCLPGDIVPAPGPVLAPTHLQTELVLRCQKETDCDLCLRVAVHLAVHGHWEEPEDEEKFGGAADSGVEEPRNASLQAQVVLSFQAYPTARCVLLEVQVPAALVQFGQSVGSVVYDCFEAALGSEVRIWSYTQPRYEKELNHTQQLPDCRGLEVWNSIPSCWALPWLNVSADGDNVHLVLNVSEEQHFGLSLYWNQVQGPPKPRWHKNLTGPQIITLNHTDLVPCLCIQVWPLEPDSVRTNICPFREDPRAHQNLWQAARLQLLTLQSWLLDAPCSLPAEAALCWRAPGGDPCQPLVPPLSWENVTVDKVLEFPLLKGHPNLCVQVNSSEKLQLQECLWADSLGPLKDDVLLLETRGPQDNRSLCALEPSGCTSLPSKASTRAARLGEYLLQDLQSGQCLQLWDDDLGALWACPMDKYIHKR
Kd [5]: 8 µM
